Measurements: patent CN1934266A

How the values were obtained:
Experiment in all cases: ELISA, growth factor coated at 10 μg/ml, antibody at 10 μg/ml, mean of duplicates
[1] = target: BMP-2 (R&D Systems 355-BEC/CF) (UniProt P12643)
[2] = target: BMP-5 (R&D Systems 615-BM) (UniProt P22003)
[3] = target: BMP-6 (R&D Systems 507-BP) (UniProt P22004)
[4] = target: BMP-7 (R&D Systems 354-BP) (UniProt P18075)
[5] = target: IGF-1 (R&D Systems 291-G1) (UniProt P05019)
[6] = target: TGF-a (R&D Systems 239-A) (UniProt P01135)
[7] = target: TGF-b1 (Peprotech 100-21R) (UniProt P01137)
[8] = target: TGF-b2 (Peprotech 100-35) (UniProt P61812)
[9] = target: 激活蛋白A (R&D Systems 338-AC) (UniProt P08476)
[10] = target: 激活蛋白B (R&D Systems 659-AB) (UniProt P09529)
[11] = target: 重组人GDF-11(Peprotech公司，目录号120-11) (human) (UniProt O95390)
[12] = target: 重组小鼠肌肉生长抑素(R&D systems，目录号788-G8/CF) (mouse) (UniProt O08689)
Chain of UniProt O08689 (O08689 268-376): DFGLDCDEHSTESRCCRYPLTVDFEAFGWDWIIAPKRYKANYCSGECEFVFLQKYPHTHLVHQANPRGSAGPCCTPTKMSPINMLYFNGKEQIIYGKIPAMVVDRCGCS

Chain of UniProt P05019 (P05019 49-118 limits assumed): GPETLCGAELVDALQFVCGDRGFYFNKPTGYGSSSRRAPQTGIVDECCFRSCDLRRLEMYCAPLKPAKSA
Chain of UniProt O95390 (O95390 299-407 limits assumed): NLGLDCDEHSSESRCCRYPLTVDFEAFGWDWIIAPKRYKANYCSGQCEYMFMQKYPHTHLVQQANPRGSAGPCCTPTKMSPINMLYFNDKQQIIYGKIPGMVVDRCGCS
Chain of UniProt P22004 (P22004 382-513 limits assumed): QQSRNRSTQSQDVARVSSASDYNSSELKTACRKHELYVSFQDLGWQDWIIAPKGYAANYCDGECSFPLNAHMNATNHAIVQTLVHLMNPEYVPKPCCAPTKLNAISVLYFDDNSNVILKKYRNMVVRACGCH
Chain of UniProt P09529 (P09529 293-407 limits assumed): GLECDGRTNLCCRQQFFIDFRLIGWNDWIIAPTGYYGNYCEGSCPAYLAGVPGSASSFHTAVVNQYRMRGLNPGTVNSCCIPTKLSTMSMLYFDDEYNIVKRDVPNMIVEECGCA
Chain of UniProt P01135 (P01135 40-89 limits assumed): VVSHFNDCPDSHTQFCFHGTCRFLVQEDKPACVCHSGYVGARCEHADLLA
Chain of UniProt P12643 (P12643 283-396 limits assumed): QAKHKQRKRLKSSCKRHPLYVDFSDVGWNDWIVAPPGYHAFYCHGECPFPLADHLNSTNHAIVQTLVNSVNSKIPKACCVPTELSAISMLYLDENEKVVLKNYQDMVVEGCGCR
Chain of UniProt P61812 (P61812 303-414 limits assumed): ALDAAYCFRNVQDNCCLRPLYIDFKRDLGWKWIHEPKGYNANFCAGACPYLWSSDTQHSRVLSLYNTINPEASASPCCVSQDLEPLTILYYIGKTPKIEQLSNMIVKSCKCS
Chain of UniProt P22003 (P22003 317-454 limits assumed): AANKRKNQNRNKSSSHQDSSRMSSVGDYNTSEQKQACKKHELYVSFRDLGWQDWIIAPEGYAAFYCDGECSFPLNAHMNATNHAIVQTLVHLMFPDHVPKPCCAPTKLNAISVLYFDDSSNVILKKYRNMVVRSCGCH
Chain of UniProt P01137 (P01137 279-390 limits assumed): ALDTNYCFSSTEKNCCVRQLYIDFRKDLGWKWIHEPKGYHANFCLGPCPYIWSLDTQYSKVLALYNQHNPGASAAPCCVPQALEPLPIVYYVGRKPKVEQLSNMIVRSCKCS
Chain of UniProt P08476 (P08476 311-426 limits assumed): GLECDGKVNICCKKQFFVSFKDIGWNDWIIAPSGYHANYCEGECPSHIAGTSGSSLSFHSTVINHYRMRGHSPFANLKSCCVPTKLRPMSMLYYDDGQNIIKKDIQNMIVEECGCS
Chain of UniProt P18075 (P18075 293-431 limits assumed): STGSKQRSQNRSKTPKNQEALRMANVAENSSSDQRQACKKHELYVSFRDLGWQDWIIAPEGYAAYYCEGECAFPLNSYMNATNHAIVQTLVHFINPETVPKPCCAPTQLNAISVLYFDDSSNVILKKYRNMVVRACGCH

- 平均吸光度 (OD 490 nm) [1]: 0.0525 OD 490 nm
- 平均吸光度 (OD 490 nm) [2]: 0.038 OD 490 nm
- 平均吸光度 (OD 490 nm) [3]: 0.0745 OD 490 nm
- 平均吸光度 (OD 490 nm) [4]: 0.042 OD 490 nm
- 平均吸光度 (OD 490 nm) [5]: 0.045 OD 490 nm
- 平均吸光度 (OD 490 nm) [6]: 0.0445 OD 490 nm
- 平均吸光度 (OD 490 nm) [7]: 0.0425 OD 490 nm
- 平均吸光度 (OD 490 nm) [8]: 0.0525 OD 490 nm
- 平均吸光度 (OD 490 nm) [9]: 0.049 OD 490 nm
- 平均吸光度 (OD 490 nm) [10]: 0.0485 OD 490 nm
- 平均吸光度 (OD 490 nm) [11]: 2.62 OD 490 nm
- 平均吸光度 (OD 490 nm) [12]: 2.94 OD 490 nm
Substance: 多克隆抗肌肉生长抑素抗体(R&D Systems，目录号AF788) (antibody)
